To fix the notation:
B1: POU domain, class 3, transcription factor 2, residues 262 to 338; numbered along this chain, P20265 (parent)
chain: EDTPTSDDLEQFAKQFKQRRIKLGFTQADVGLALGTLYGNVFSQTTICRFEALQLSFKNMCKLKPLLNKWLEEADSS

± gives the uncertainty stated by the source.

This data set covers variants of B1. The data set is described as follows: abundance fitness (aPCA) (normalised: wild type 0, dead -1); higher = more abundant; growth selection in yeast, the domain comes from the species named. The conditions noted are these: Homo sapiens.
For EDTPTSDDLEQFAKQFKQRRIKLGFTQADVGLALGTLYGLVFSQTTICRFEALQLSFKNMCKLKPLLNKWLEEADSS, the abundance fitness was -0.173 ± 0.037.

In the case of EDTPTSDDLEQFAKQFKQRRIKLGFTQADVGLALGTLYGWVFSQTTICRFEALQLSFKNMCKLKPLLNKWLEEADSS, the abundance fitness was -0.281 ± 0.049.

Consider EDTPTSDDLEQFAKQFKQRRIKLGFTQADVGLALGTLYGDVFSQTTICRFEALQLSFKNMCKLKPLLNKWLEEADSS, for which the abundance fitness turned out to be 0.016 ± 0.059.

Regarding EDTPTSDDLEQFAKQFKQRRIKLGFTQADVGLALGTLYGPVFSQTTICRFEALQLSFKNMCKLKPLLNKWLEEADSS, the abundance fitness is -0.005 ± 0.046.

Turning to EDTPTSDDLEQFAKQFKQRRIKLGFTQADVGLALGTLYGAVFSQTTICRFEALQLSFKNMCKLKPLLNKWLEEADSS, the abundance fitness is -0.055 ± 0.038.

For the variant EDTPTSDDLEQFAKQFKQRRIKLGFTQADVGLALGTLYGGVFSQTTICRFEALQLSFKNMCKLKPLLNKWLEEADSS, the abundance fitness worked out at 0.035 ± 0.032.

As for EDTPTSDDLEQFAKQFKQRRIKLGFTQADVGLALGTLYGTVFSQTTICRFEALQLSFKNMCKLKPLLNKWLEEADSS, the abundance fitness is -0.063 ± 0.051.

EDTPTSDDLEQFAKQFKQRRIKLGFTQADVGLALGTLYGMVFSQTTICRFEALQLSFKNMCKLKPLLNKWLEEADSS: the abundance fitness is -0.107 ± 0.051.

As to EDTPTSDDLEQFAKQFKQRRIKLGFTQADVGLALGTLYGSVFSQTTICRFEALQLSFKNMCKLKPLLNKWLEEADSS, the abundance fitness was 0.022 ± 0.041.

In the case of EDTPTSDDLEQFAKQFKQRRIKLGFTQADVGLALGTLYGIVFSQTTICRFEALQLSFKNMCKLKPLLNKWLEEADSS, the abundance fitness was -0.045 ± 0.096.

On to EDTPTSDDLEQFAKQFKQRRIKLGFTQADVGLALGTLYGFVFSQTTICRFEALQLSFKNMCKLKPLLNKWLEEADSS, for which the abundance fitness is -0.173 ± 0.08.

EDTPTSDDLEQFAKQFKQRRIKLGFTQADVGLALGTLYGCVFSQTTICRFEALQLSFKNMCKLKPLLNKWLEEADSS: the abundance fitness was 0.028 ± 0.06.

Consider EDTPTSDDLEQFAKQFKQRRIKLGFTQADVGLALGTLYGYVFSQTTICRFEALQLSFKNMCKLKPLLNKWLEEADSS, for which the abundance fitness is -0.007 ± 0.084.

On to EDTPTSDDLEQFAKQFKQRRIKLGFTQADVGLALGTLYGEVFSQTTICRFEALQLSFKNMCKLKPLLNKWLEEADSS, for which the abundance fitness was found to be 0.108 ± 0.04.

For EDTPTSDDLEQFAKQFKQRRIKLGFTQADVGLALGTLYGRVFSQTTICRFEALQLSFKNMCKLKPLLNKWLEEADSS, the abundance fitness was found to be 0.023 ± 0.035.

On to EDTPTSDDLEQFAKQFKQRRIKLGFTQADVGLALGTLYGKVFSQTTICRFEALQLSFKNMCKLKPLLNKWLEEADSS, for which the abundance fitness was -0.016 ± 0.044.

Turning to EDTPTSDDLEQFAKQFKQRRIKLGFTQADVGLALGTLYGHVFSQTTICRFEALQLSFKNMCKLKPLLNKWLEEADSS, the abundance fitness is 0.06 ± 0.085.

EDTPTSDDLEQFAKQFKQRRIKLGFTQADVGLALGTLYGQVFSQTTICRFEALQLSFKNMCKLKPLLNKWLEEADSS: the abundance fitness amounted to 0.069 ± 0.043.

In the case of EDTPTSDDLEQFAKQFKQRRIKLGFTQADVGLALGTLYWNVFSQTTICRFEALQLSFKNMCKLKPLLNKWLEEADSS, the abundance fitness was -0.715 ± 0.064.

Take EDTPTSDDLEQFAKQFKQRRIKLGFTQADVGLALGTLYDNVFSQTTICRFEALQLSFKNMCKLKPLLNKWLEEADSS: the abundance fitness is -0.079 ± 0.053.

In the case of EDTPTSDDLEQFAKQFKQRRIKLGFTQADVGLALGTLYTNVFSQTTICRFEALQLSFKNMCKLKPLLNKWLEEADSS, the abundance fitness was -0.325 ± 0.047.

For EDTPTSDDLEQFAKQFKQRRIKLGFTQADVGLALGTLYANVFSQTTICRFEALQLSFKNMCKLKPLLNKWLEEADSS, the abundance fitness is -0.314 ± 0.033.

In the case of EDTPTSDDLEQFAKQFKQRRIKLGFTQADVGLALGTLYSNVFSQTTICRFEALQLSFKNMCKLKPLLNKWLEEADSS, the abundance fitness is -0.321 ± 0.04.

Consider EDTPTSDDLEQFAKQFKQRRIKLGFTQADVGLALGTLYYNVFSQTTICRFEALQLSFKNMCKLKPLLNKWLEEADSS, for which the abundance fitness is -0.533 ± 0.16.

Take EDTPTSDDLEQFAKQFKQRRIKLGFTQADVGLALGTLYNNVFSQTTICRFEALQLSFKNMCKLKPLLNKWLEEADSS: the abundance fitness is -0.012 ± 0.066.

Turning to EDTPTSDDLEQFAKQFKQRRIKLGFTQADVGLALGTLYMNVFSQTTICRFEALQLSFKNMCKLKPLLNKWLEEADSS, the abundance fitness is -0.624 ± 0.074.

As for EDTPTSDDLEQFAKQFKQRRIKLGFTQADVGLALGTLYFNVFSQTTICRFEALQLSFKNMCKLKPLLNKWLEEADSS, the abundance fitness was -0.621 ± 0.13.

As for EDTPTSDDLEQFAKQFKQRRIKLGFTQADVGLALGTLYKNVFSQTTICRFEALQLSFKNMCKLKPLLNKWLEEADSS, the abundance fitness is -0.219 ± 0.054.

Take EDTPTSDDLEQFAKQFKQRRIKLGFTQADVGLALGTLYVNVFSQTTICRFEALQLSFKNMCKLKPLLNKWLEEADSS: the abundance fitness was -0.897 ± 0.069.

For EDTPTSDDLEQFAKQFKQRRIKLGFTQADVGLALGTLYENVFSQTTICRFEALQLSFKNMCKLKPLLNKWLEEADSS, the abundance fitness is -0.207 ± 0.036.

On to EDTPTSDDLEQFAKQFKQRRIKLGFTQADVGLALGTLYPNVFSQTTICRFEALQLSFKNMCKLKPLLNKWLEEADSS, for which the abundance fitness was -0.023 ± 0.046.

Turning to EDTPTSDDLEQFAKQFKQRRIKLGFTQADVGLALGTLYHNVFSQTTICRFEALQLSFKNMCKLKPLLNKWLEEADSS, the abundance fitness was -0.19 ± 0.074.

For EDTPTSDDLEQFAKQFKQRRIKLGFTQADVGLALGTLYRNVFSQTTICRFEALQLSFKNMCKLKPLLNKWLEEADSS, the abundance fitness was -0.25 ± 0.03.

In the case of EDTPTSDDLEQFAKQFKQRRIKLGFTQADVGLALGTLYINVFSQTTICRFEALQLSFKNMCKLKPLLNKWLEEADSS, the abundance fitness is -0.808 ± 0.21.

Consider EDTPTSDDLEQFAKQFKQRRIKLGFTQADVGLALGTLYCNVFSQTTICRFEALQLSFKNMCKLKPLLNKWLEEADSS, for which the abundance fitness was -0.528 ± 0.069.

Consider EDTPTSDDLEQFAKQFKQRRIKLGFTQADVGLALGTLYLNVFSQTTICRFEALQLSFKNMCKLKPLLNKWLEEADSS, for which the abundance fitness is -0.754 ± 0.076.

The values above are taken from the Human Domainome abundance scans (Beltran et al. 2025).
